Here are results for ten molecules from paper PMC5779224, “Autoinhibition of ankyrin-B/G membrane target bindings by intrinsically disordered segments from the tail regions” (eLife, 2017).

Conditions in all cases: both partners purified
Test [1] concerns the target T1, AnkG 38–855 (AnkG MBD-AI-c protein; MBD + partial AI-c) (rat, UniProt O70511-1 38-855).
T1 construct: numbers count on: rat AnkG NM_001033984.1 (MBD-UPA); also called AnkG WT; source: E. coli BL21 (DE3), purified (Ni2+-NTA, size exclusion)
T1 sequence (looked up): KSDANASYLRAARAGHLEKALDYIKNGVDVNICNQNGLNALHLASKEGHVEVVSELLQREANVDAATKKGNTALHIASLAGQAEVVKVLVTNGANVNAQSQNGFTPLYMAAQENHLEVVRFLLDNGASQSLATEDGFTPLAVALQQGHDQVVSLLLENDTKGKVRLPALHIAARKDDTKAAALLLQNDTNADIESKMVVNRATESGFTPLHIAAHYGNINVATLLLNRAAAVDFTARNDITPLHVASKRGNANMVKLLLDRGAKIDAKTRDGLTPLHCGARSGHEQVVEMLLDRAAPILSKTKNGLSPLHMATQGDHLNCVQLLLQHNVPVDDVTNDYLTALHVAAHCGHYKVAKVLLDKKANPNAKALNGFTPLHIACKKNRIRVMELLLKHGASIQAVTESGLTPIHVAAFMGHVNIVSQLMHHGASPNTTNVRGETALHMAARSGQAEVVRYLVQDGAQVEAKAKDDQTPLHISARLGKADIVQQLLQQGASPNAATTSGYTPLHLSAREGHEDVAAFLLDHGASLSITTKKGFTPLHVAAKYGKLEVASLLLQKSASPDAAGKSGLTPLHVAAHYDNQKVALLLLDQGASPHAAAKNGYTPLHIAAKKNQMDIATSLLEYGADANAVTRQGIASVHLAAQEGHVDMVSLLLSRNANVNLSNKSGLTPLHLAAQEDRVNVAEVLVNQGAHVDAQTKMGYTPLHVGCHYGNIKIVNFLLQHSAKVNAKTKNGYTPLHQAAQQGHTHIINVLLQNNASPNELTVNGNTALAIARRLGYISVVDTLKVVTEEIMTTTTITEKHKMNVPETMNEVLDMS
As to the kind of experiment: ITC; VP-ITC MicroCal, 25 °C; proteins in 50 mM Tris-HCl pH 7.8, 1 mM DTT, 1 mM EDTA with 100 mM or 500 mM NaCl as required; who was titrated is not told.

Test [2] has as its target T2, AnkB 28–847 (MBD + partial AI-c) (human, UniProt Q01484-2 28-847).
T2 construct: ankyrin-B (AnkB), human 220 kDa isoform, residues 28-847: MBD and a short 20-residue linker; numbers count on: human 220 kDa AnkB NM_020977.3; also called extended MBD with a short 20-residue linker; source: E. coli BL21 (DE3), purified (Ni2+-NTA, size exclusion)
T2 sequence (looked up): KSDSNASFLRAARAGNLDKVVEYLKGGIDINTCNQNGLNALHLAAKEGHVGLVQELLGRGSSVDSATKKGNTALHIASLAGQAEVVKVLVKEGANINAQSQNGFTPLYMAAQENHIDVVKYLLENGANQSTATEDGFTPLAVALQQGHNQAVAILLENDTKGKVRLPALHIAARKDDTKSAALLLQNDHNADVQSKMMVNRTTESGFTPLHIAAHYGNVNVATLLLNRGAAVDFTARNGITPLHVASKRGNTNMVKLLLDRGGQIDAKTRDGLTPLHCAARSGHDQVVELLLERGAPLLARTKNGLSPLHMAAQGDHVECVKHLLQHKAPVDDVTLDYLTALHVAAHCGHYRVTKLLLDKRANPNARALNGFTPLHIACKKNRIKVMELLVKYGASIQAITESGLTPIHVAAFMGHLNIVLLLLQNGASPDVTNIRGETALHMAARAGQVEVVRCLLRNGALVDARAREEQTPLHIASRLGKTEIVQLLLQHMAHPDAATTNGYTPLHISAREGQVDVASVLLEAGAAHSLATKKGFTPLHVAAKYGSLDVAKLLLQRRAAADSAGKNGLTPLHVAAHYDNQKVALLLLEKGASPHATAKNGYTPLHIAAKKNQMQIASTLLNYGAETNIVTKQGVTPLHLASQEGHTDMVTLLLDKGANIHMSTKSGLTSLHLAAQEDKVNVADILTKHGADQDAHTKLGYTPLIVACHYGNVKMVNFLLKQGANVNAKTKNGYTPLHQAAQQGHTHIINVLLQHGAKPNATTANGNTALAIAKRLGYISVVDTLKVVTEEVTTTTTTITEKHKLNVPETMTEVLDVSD
The description is as above.

Test [3] deals with T3, AnkG 38–903 (MBD + AI-c + AI-b) (rat, UniProt O70511-1 38-903).
T3 construct: numbers count on: rat AnkG NM_001033984.1 (MBD-UPA); also called extended AnkG MBD; source: E. coli BL21 (DE3), purified (Ni2+-NTA, size exclusion)
T3 sequence (looked up): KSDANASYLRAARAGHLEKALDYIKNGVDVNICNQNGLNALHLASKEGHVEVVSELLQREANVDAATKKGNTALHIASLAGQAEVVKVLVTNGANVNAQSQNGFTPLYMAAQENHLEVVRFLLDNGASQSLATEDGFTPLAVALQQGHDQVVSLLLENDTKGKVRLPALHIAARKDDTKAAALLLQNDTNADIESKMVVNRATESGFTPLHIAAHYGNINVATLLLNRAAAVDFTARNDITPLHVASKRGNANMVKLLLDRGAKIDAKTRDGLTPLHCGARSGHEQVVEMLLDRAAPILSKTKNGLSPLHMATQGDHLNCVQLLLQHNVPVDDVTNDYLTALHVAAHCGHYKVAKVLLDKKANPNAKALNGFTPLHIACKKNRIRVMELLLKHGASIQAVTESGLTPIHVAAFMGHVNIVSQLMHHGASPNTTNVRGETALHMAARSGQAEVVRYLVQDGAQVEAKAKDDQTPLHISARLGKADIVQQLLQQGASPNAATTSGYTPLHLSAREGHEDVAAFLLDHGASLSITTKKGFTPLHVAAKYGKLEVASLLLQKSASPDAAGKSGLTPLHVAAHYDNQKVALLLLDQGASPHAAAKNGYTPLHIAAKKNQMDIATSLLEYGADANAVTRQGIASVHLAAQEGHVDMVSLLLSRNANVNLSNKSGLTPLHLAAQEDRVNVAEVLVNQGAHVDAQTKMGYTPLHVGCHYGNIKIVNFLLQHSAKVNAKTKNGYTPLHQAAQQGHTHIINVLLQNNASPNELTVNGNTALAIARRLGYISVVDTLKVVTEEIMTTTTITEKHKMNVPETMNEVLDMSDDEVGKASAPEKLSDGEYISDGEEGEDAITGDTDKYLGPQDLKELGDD
The test is described as above.

Test [4] has as its target T4, AnkB_MBD (AnkB ANK repeats only, aa 28–827) (human, UniProt Q01484-2 28-827).
T4 construct: ankyrin-B (AnkB), human 220 kDa isoform, residues 28-827: the 24 ANK repeats (MBD), no linker; numbers count on: human 220 kDa AnkB NM_020977.3; Poor quality in 100 mM NaCl buffer; also called AnkB 28–827; source: E. coli BL21 (DE3), purified (Ni2+-NTA, size exclusion)
T4 sequence (looked up): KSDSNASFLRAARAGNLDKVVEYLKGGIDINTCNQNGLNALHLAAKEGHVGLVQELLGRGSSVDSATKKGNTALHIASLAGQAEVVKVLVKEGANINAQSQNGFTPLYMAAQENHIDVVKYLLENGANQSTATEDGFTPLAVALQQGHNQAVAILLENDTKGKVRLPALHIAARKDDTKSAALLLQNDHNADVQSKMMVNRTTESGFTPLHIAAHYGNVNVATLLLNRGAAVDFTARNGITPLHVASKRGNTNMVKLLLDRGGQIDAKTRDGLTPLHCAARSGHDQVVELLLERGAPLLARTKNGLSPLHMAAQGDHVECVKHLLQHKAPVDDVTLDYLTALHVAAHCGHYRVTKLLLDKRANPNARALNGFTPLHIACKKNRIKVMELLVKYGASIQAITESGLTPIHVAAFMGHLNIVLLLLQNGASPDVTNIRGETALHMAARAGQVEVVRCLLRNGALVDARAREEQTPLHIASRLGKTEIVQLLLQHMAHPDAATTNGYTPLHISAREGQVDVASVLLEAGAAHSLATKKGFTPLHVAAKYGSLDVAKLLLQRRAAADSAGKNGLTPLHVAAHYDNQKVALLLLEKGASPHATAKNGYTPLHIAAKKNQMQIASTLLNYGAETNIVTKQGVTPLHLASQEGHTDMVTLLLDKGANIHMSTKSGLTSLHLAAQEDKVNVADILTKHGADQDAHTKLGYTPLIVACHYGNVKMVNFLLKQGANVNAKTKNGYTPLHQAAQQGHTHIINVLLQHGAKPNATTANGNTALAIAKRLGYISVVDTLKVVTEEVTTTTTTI
As to the kind of experiment: fluorescence polarisation; PerkinElmer LS-55 fluorimeter with automated polarizer, 25 °C; one-site binding model.

Test [5] deals with T4, AnkB_MBD (AnkB ANK repeats only, aa …). As to the kind of experiment: ITC; VP-ITC MicroCal, 25 °C; proteins in 50 mM Tris-HCl pH 7.8, 1 mM DTT, 1 mM EDTA with 100 mM or 500 mM NaCl as required; who was titrated is not told.
The target is the same in test [6]. As to the kind of experiment: ITC; VP-ITC MicroCal, 25 °C; buffer containing 500 mM NaCl, due to poor quality of AnkB 28-827 in 100 mM NaCl buffer.

B1: AnkG_AI-b (aa 875–903) (domain or fragment, rat, UniProt O70511-1 875-903, looked up)
chain: SDGEEGEDAITGDTDKYLGPQDLKELGDD
notes: numbers count on: rat AnkG NM_001033984.1 (MBD-UPA); source: E. coli BL21 (DE3), purified (Ni2+-NTA, size exclusion)
As to B1, the binding result in test [1] is “binds”.

B2: AnkG linker ΔAI-c (aa 861–920) (domain or fragment, rat, UniProt O70511-1 861-920, looked up)
chain: KASAPEKLSDGEYISDGEEGEDAITGDTDKYLGPQDLKELGDDSLPAEGYVGFSLGARSA
notes: ankyrin-G (AnkG), rat, linker residues 861-920, lacking AI-c; numbers count on: rat AnkG NM_001033984.1 (MBD-UPA); also called AnkG 861–920; shorter version of the linker; source: E. coli BL21 (DE3), purified (Ni2+-NTA, size exclusion)
With B2, the binding result in test [1] is given as “binds”.

B3: AnkB_AI-b (aa 865–896) (domain or fragment, human, UniProt Q01484-2 865-896, looked up)
chain: EDLKELGDDSLPSSQFLDGMNYLRYSLEGGRS
notes: numbers count on: human 220 kDa AnkB NM_020977.3; also called 32-aa fragment; source: E. coli BL21 (DE3), purified (Ni2+-NTA, size exclusion)
Turning to B3, the binding result in test [2] was “binds”.

B4: E-cadherin (aa 734–884) (domain or fragment)
chain: not shown
notes: source: E. coli BL21 (DE3), purified (Ni2+-NTA, size exclusion)
Turning to B4, the binding result in test [3], in test [2] and in test [1] was “binds” throughout.

B5: AnkB_AI-a peptide (aa 1623–1635) (peptide, UniProt Q01484-2 1623-1635, looked up)
peptide: HPPIVSEEDISVG
notes: ankyrin-B (AnkB), human 220 kDa isoform, 13-residue AI-a segment of the C-terminal tail, residues 1623-1635; numbers count on: human 220 kDa AnkB NM_020977.3; The text says a peptide encompassing the AI-a segment, so it may be longer than 1623-1635; The fluorescent label of the polarisation assay is not described here (protocol of Wang et al., 2014)
Regarding B5, the Kd in test [4] was roughly 7.3 µM.

B6: AnkG long linker (aa 837–920; AI-c + AI-b) (domain or fragment, rat, UniProt O70511-1 837-920, looked up)
chain: TEKHKMNVPETMNEVLDMSDDEVGKASAPEKLSDGEYISDGEEGEDAITGDTDKYLGPQDLKELGDDSLPAEGYVGFSLGARSA
notes: as for B1
For B6, the binding result in test [1] is on record as “binds”.

B7: AnkB_AI-c Asn834Lys (domain or fragment, human, UniProt Q01484-2 828-852, looked up)
chain: TEKHKLKVPETMTEVLDVSDEEGDD
notes: numbers count on: human 220 kDa AnkB NM_020977.3; source: E. coli BL21 (DE3), purified (Ni2+-NTA, size exclusion)
As for B7, the binding result in test [5] is reported as “binds”.

B8: AnkB_AI-c Met839Gln (domain or fragment, human, UniProt Q01484-2 828-852, looked up)
chain: TEKHKLNVPETQTEVLDVSDEEGDD
notes: as for B7
Regarding B8, the binding result in test [5] was “binds”.

B9: AnkB_AI-c Leu843Gln (domain or fragment, human, UniProt Q01484-2 828-852, looked up)
chain: TEKHKLNVPETMTEVQDVSDEEGDD
notes: as for B7
On to B9, for which the binding result in test [5] is “binds”.

B10: AnkB entire linker (aa 828–965) (domain or fragment, human, UniProt Q01484-2 828-965, looked up)
chain: TEKHKLNVPETMTEVLDVSDEEGDDTMTGDGGEYLRPEDLKELGDDSLPSSQFLDGMNYLRYSLEGGRSDSLRSFSSDRSHTLSHASYLRDSAVMDDSVVIPSHQVSTLAKEAERNSYRLSWGTENLDNVALSSSPIH
notes: numbers count on: human 220 kDa AnkB NM_020977.3; also called Linker (contains AI-c + AI-b); AnkB linker region; source: E. coli BL21 (DE3), purified (Ni2+-NTA, size exclusion)
Turning to B10, the Kd in test [2] was roughly 4.2 µM; in test [6] it was roughly 0.044 µM.
